Substitutions are numbered along the chain they refer to. Names may count otherwise.
B1: AsHPPDm-F372G-F383W-02: nucleotide sequence encoding Avena sativa HPPD with F372G+F383W; vector DBN11775 (nucleic acid)
DNA: ATGCCACCTACTCCAGCTACAGCTACTGGTGCTGCTGCTGCTGCCGTTACTCCTGAGCACGCTGCCAGGTCATTCCCCAGGGTGGTTCGCGTGAACCCCAGATCTGATAGGTTCCCAGTTCTGAGCTTCCACCATGTTGAGCTGTGGTGCGCTGATGCTGCTTCTGCTGCTGGCAGGTTCTCTTTCGCTCTTGGTGCTCCACTCGCTGCTAGATCTGATCTGTCTACAGGAAATAGCGCTCATGCCTCACTCCTGCTTCGCTCAGGTGCTTTGGCCTTCCTCTTCACCGCTCCATATGCTCCCCCACCTCAGGAGGCTGCTACTGCTGCTGCTACAGCCTCCATTCCAAGCTTCTCAGCTGATGCCGCTAGAACCTTCGCTGCTGCTCATGGACTTGCCGTGAGGTCTGTTGGTGTTCGCGTGGCTGATGCTGCTGAGGCTTTCAGAGTTTCCGTTGCCGGCGGAGCTAGGCCAGCTTTCGCTCCTGCTGATTTGGGACATGGTTTCGGCCTGGCTGAGGTTGAGCTTTACGGTGACGTGGTTCTCCGCTTCGTGTCTTACCCAGATGAGACTGACCTGCCTTTCCTTCCCGGCTTCGAGAGAGTTTCCTCTCCTGGTGCCGTGGATTACGGCCTGACAAGGTTCGACCACGTGGTTGGAAACGTTCCCGAGATGGCTCCAGTGATCGATTACATGAAGGGCTTCCTTGGATTCCATGAGTTCGCCGAGTTCACTGCTGAGGACGTGGGAACCACTGAGTCCGGTTTGAACTCTGTGGTTCTCGCCAACAATTCTGAGGCTGTTTTGCTCCCTCTGAATGAGCCTGTGCATGGAACCAAGAGGAGAAGCCAGATTCAAACTTACCTGGAGTACCACGGTGGCCCTGGAGTTCAGCATATCGCCCTTGCTTCTAATGATGTGTTGCGCACACTCAGAGAGATGCGCGCCAGAACCCCCATGGGAGGTTTCGAGTTCATGGCCCCACCACAGGCTAAGTACTACGAGGGCGTTAGAAGGATTGCTGGAGACGTGTTGAGCGAGGAGCAGATCAAGGAGTGCCAAGAGCTGGGTGTTCTTGTGGATAGGGATGACCAGGGCGTTCTGCTTCAAATTGGTACTAAGCCAGTGGGCGACCGCCCTACATTCTGGCTTGAGATGATTCAAAGAATCGGCTGCATGGAGAAGGATGAGGTTGGACAGGAGTACCAAAAGGGCGGATGCGGTGGCTTCGGAAAGGGTAACTTCAGCGAGTTGTTCAAGTCAATCGAGGACTACGAGAAGAGCCTCGAGGTGAAGCAGTCAGTGGTTGCCCAAAAGTCCTGA
modifications: AsHPPDm-F372G-F383W-02 Nucleotide Sequence
notes: vector DBN11775
B2: AsHPPDm-F372V-02: nucleotide sequence encoding Avena sativa HPPD with F372V; vector DBN11776 (nucleic acid)
DNA: B1 DNA with G1115T, T1116C, G1148T, G1149C
modifications: AsHPPDm-F372V-02 Nucleotide Sequence
notes: vector DBN11776

How the values were obtained:
Format in all cases: in vivo
[1] = tested on: Arabidopsis thaliana T1 plants; assay: Topramezone tolerance of transgenic Arabidopsis thaliana T1 plants (spray, bleached leaf area grade, damage score); conditions: for Resistance evaluation / Scores / Grade 0 (classification and statistics of the grade of pesticide damage; number of plants) / Grade 1 (classification and statistics of the grade of pesticide damage; number of plants) / Grade 2 (classification and statistics of the grade of pesticide damage; number of plants) / Grade 3 (classification and statistics of the grade of pesticide damage; number of plants): Arabidopsis thaliana T1 plants; for Grade 0 (classification and statistics of the grade of pesticide damage; number of plants) / Grade 1 (classification and statistics of the grade of pesticide damage; number of plants) / Grade 2 (classification and statistics of the grade of pesticide damage; number of plants) / Grade 3 (classification and statistics of the grade of pesticide damage; number of plants): 16 plants; for tolerance to topramezone (resistance class): topramezone at four-fold or eight-fold field concentration
Procedure, shortened: (§1)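 T1 transformants selected by glufosinate; 18-day-old plants, with empty-vector and wild-type controls, sprayed with topramezone (25–200 g ai/ha), isoxaflutole (35–280 g ai/ha) or mesotrione (52.5–420 g ai/ha), water as 0×. Bleached leaf area fraction scored at 7 DAT as grades 0–3.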

[2] = tested on: Arabidopsis thaliana T1 plants; assay: Mesotrione tolerance of transgenic Arabidopsis thaliana T1 plants (spray, bleached leaf area grade, damage score); parameters: Scores: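 damage score 0-100 computed as Σ(N×S)/(T×M)×100 over grades 0-3 with higher meaning more damage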; conditions: Table 9; for Classification and statistics of the grade of pesticide damage Grade 0: number of plants at grade 0; for Classification and statistics of the grade of pesticide damage Grade 1: number of plants at grade 1; for Classification and statistics of the grade of pesticide damage Grade 2: number of plants at grade 2; for Classification and statistics of the grade of pesticide damage Grade 3: number of plants at grade 3; for Scores: pesticide damage score
Procedure, shortened: as §1

[3] = tested on: Arabidopsis thaliana T1 plants; assay: Isoxaflutole tolerance of transgenic Arabidopsis thaliana T1 plants (spray, bleached leaf area grade, damage score); conditions: Arabidopsis thaliana T1 plants; for Grade 0 (classification and statistics of the grade of pesticide damage; number of plants) / Grade 1 (classification and statistics of the grade of pesticide damage; number of plants) / Grade 2 (classification and statistics of the grade of pesticide damage; number of plants) / Grade 3 (classification and statistics of the grade of pesticide damage; number of plants): 16 plants;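 for Scores: Weighted damage index from 0 to 100 where higher means more damage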
Procedure, shortened: as §1

[4] = topramezone 100 g ai/ha (4x field concentration)
[5] = topramezone 200 g ai/ha (8x field concentration)
[6] = isoxaflutole 140 g ai/ha (2x field concentration)
[7] = isoxaflutole 280 g ai/ha (4x field concentration)

Molecule	Resistance evaluation [1, 4]	Scores [1, 4]	Grade 0 (classification and statistics of the grade of pesticide damage; number of plants) [1, 4]	Grade 1 (classification and statistics of the grade of pesticide damage; number of plants) [1, 4]	Grade 2 (classification and statistics of the grade of pesticide damage; number of plants) [1, 4]	Grade 3 (classification and statistics of the grade of pesticide damage; number of plants) [1, 4]	Resistance evaluation [1, 5]	Scores [1, 5]	Grade 0 (classification and statistics of the grade of pesticide damage; number of plants) [1, 5]	Grade 1 (classification and statistics of the grade of pesticide damage; number of plants) [1, 5]	Grade 2 (classification and statistics of the grade of pesticide damage; number of plants) [1, 5]	Grade 3 (classification and statistics of the grade of pesticide damage; number of plants) [1, 5]	tolerance to topramezone (resistance class) [1]	Resistance evaluation ([2]; mesotrione 210 g ai/ha (2×))	Classification and statistics of the grade of pesticide damage Grade 0 ([2]; mesotrione 210 g ai/ha (2×))	Classification and statistics of the grade of pesticide damage Grade 1 ([2]; mesotrione 210 g ai/ha (2×))	Classification and statistics of the grade of pesticide damage Grade 2 ([2]; mesotrione 210 g ai/ha (2×))	Classification and statistics of the grade of pesticide damage Grade 3 ([2]; mesotrione 210 g ai/ha (2×))	Scores ([2]; mesotrione 210 g ai/ha (2×))	Resistance evaluation ([2]; mesotrione 420 g ai/ha (4×))	other results
B1	Highly resistant	0	16	0	0	0	Highly resistant	0	16	0	0	0	highly-resistant	Highly resistant	16	0	0	0	0	Highly resistant	Classification and statistics of the grade of pesticide damage Grade 0 ([2]; mesotrione 420 g ai/ha (4×)): 13; Classification and statistics of the grade of pesticide damage Grade 1 ([2]; mesotrione 420 g ai/ha (4×)): 3; Classification and statistics of the grade of pesticide damage Grade 2 ([2]; mesotrione 420 g ai/ha (4×)): 0; Classification and statistics of the grade of pesticide damage Grade 3 ([2]; mesotrione 420 g ai/ha (4×)): 0; Scores ([2]; mesotrione 420 g ai/ha (4×)): 6; Resistance evaluation [3, 6]: Highly resistant; Scores [3, 6]: 0; Grade 0 (classification and statistics of the grade of pesticide damage; number of plants) [3, 6]: 16; Grade 1 (classification and statistics of the grade of pesticide damage; number of plants) [3, 6]: 0; Grade 2 (classification and statistics of the grade of pesticide damage; number of plants) [3, 6]: 0; Grade 3 (classification and statistics of the grade of pesticide damage; number of plants) [3, 6]: 0; Resistance evaluation [3, 7]: Highly resistant; Scores [3, 7]: 8; Grade 0 (classification and statistics of the grade of pesticide damage; number of plants) [3, 7]: 12; Grade 1 (classification and statistics of the grade of pesticide damage; number of plants) [3, 7]: 4; Grade 2 (classification and statistics of the grade of pesticide damage; number of plants) [3, 7]: 0; Grade 3 (classification and statistics of the grade of pesticide damage; number of plants) [3, 7]: 0
B2	Highly resistant	0	16	0	0	0	Highly resistant	0	16	0	0	0	highly-resistant	Moderately	5	7	4	0	31	Poorly resistant	Classification and statistics of the grade of pesticide damage Grade 0 ([2]; mesotrione 420 g ai/ha (4×)): 0; Classification and statistics of the grade of pesticide damage Grade 1 ([2]; mesotrione 420 g ai/ha (4×)): 8; Classification and statistics of the grade of pesticide damage Grade 2 ([2]; mesotrione 420 g ai/ha (4×)): 7; Classification and statistics of the grade of pesticide damage Grade 3 ([2]; mesotrione 420 g ai/ha (4×)): 1; Scores ([2]; mesotrione 420 g ai/ha (4×)): 52; Resistance evaluation [3, 6]: Moderately; Scores [3, 6]: 33; Grade 0 (classification and statistics of the grade of pesticide damage; number of plants) [3, 6]: 6; Grade 1 (classification and statistics of the grade of pesticide damage; number of plants) [3, 6]: 5; Grade 2 (classification and statistics of the grade of pesticide damage; number of plants) [3, 6]: 4; Grade 3 (classification and statistics of the grade of pesticide damage; number of plants) [3, 6]: 1; Resistance evaluation [3, 7]: Poorly resistant; Scores [3, 7]: 67; Grade 0 (classification and statistics of the grade of pesticide damage; number of plants) [3, 7]: 0; Grade 1 (classification and statistics of the grade of pesticide damage; number of plants) [3, 7]: 0; Grade 2 (classification and statistics of the grade of pesticide damage; number of plants) [3, 7]: 16; Grade 3 (classification and statistics of the grade of pesticide damage; number of plants) [3, 7]: 0

From US20250043302A1, “MUTATED HYDROXYPHENYLPYRUVATE DIOXYGENASE POLYPEPTIDE, AND CODING GENE AND USE THEREOF” (BEIJING DABEINONG BIOTECHNOLOGY CO., LTD., priority 2021, published 2025)
